Laboratory results published in US20180284123A1 (CALIFORNIA INSTITUTE OF TECHNOLOGY, published 2018).
Ends that are not written are not given here.

B1: L2 (peptide)
peptide: EGVPV
modifications: triazole (positions not given here); not fully specified (bridges); also: macrocycle closed by 1,4-triazole, propargylglycine click handle, other ring residues not given here
notes: also called EGVPV
B2: L8 (peptide)
peptide: TDNFY
modifications: triazole (positions not given here); not fully specified (bridges); also: macrocycle closed by 1,4-triazole, propargylglycine click handle, other ring residues not given here
notes: also called TDNFY
B3: L3a (peptide)
peptide: GEVVP
modifications: triazole (positions not given here); not fully specified (bridges); also: 1,4-triazole macrocycle, ring places not given here, propargylglycine click handle, place not given here, biotinylated (biotin NovaTag resin), site not given here
notes: also called GEVVP f1
B4: L7a (peptide)
peptide: VQVPY
modifications: triazole (positions not given here); not fully specified (bridges); also: 1,4-triazole macrocycle, ring places not given here, propargylglycine click handle, place not given here, biotinylated (biotin NovaTag resin), site not given here
notes: also called VQVPY f1
B5: L7b (peptide)
peptide: VQVPY
modifications: triazole (positions not given here); not fully specified (bridges); also: 1,4-triazole macrocycle, ring places not given here, propargylglycine click handle, place not given here, biotinylated (biotin NovaTag resin), site not given here
notes: also called VQVPY f2
B6: L5b (peptide)
peptide: VEVYP
modifications: triazole (positions not given here); not fully specified (bridges); also: 1,4-triazole macrocycle, ring places not given here, propargylglycine click handle, place not given here, biotinylated (biotin NovaTag resin), site not given here
notes: also called VEVYP f2
B7: L6 (peptide)
peptide: VTVPY
modifications: triazole (positions not given here); not fully specified (bridges); also: macrocycle closed by 1,4-triazole, propargylglycine click handle, other ring residues not given here
notes: also called VTVPY
B8: L4b (peptide)
peptide: VEVPY
modifications: triazole (positions not given here); not fully specified (bridges); also: 1,4-triazole macrocycle, ring places not given here, propargylglycine click handle, place not given here, biotinylated (biotin NovaTag resin), site not given here
notes: also called VEVPY f2
B9: L1b (peptide)
peptide: HGIVG
modifications: triazole (positions not given here); not fully specified (bridges); also: 1,4-triazole macrocycle, ring places not given here, propargylglycine click handle, place not given here, biotinylated (biotin NovaTag resin), site not given here
notes: Second HPLC fraction; also called HGIVG f2
B10: L1a (peptide)
peptide: HGIVG
modifications: triazole (positions not given here); not fully specified (bridges); also: 1,4-triazole macrocycle, ring places not given here, propargylglycine click handle, place not given here, biotinylated (biotin NovaTag resin), site not given here
notes: It is one of two HPLC fractions of the same mass; also called HGIVG f1
B11: L3b (peptide)
peptide: GEVVP
modifications: triazole (positions not given here); not fully specified (bridges); also: 1,4-triazole macrocycle, ring places not given here, propargylglycine click handle, place not given here, biotinylated (biotin NovaTag resin), site not given here
notes: also called GEVVP f2
B12: L4a (peptide)
peptide: VEVPY
modifications: triazole (positions not given here); not fully specified (bridges); also: 1,4-triazole macrocycle, ring places not given here, propargylglycine click handle, place not given here, biotinylated (biotin NovaTag resin), site not given here
notes: also called VEVPY f1
B13: L5a (peptide)
peptide: VEVYP
modifications: triazole (positions not given here); not fully specified (bridges); also: 1,4-triazole macrocycle, ring places not given here, propargylglycine click handle, place not given here, biotinylated (biotin NovaTag resin), site not given here
notes: also called VEVYP f1

These binders were tested against T1, His6-tagged human KRas Isoform 4B (residues 1-169) (human, UniProt P01116-2 1-169) (assay: cell-based or functional assay).

IC50 of the intrinsic GTPase activity of KRas (GTPase-Glo, 10 µM KRas, four-hour incubation)	IC50 of the intrinsic GTPase enzymatic activity of KRas	Binder
24 µM	~20 µM	B1

Each binder was assayed against T1, His6-tagged human KRas Isoform 4B … (assay: multi-well sandwich ELISA; ligand on Neutravidin plate, KRas 0-300 µM).
Description: (§1) A 96-well Pierce Neutravidin Plate was washed with binding buffer (3×5 minutes at RT) before loading plate with a 1 μM solution of either blank (biotin-PEG₅-NHAc) (singly) or biotinylated PCC ligand (in triplicate). The plate incubated for two hours before washing with binding buffer (3×5 minutes). Blocking buffer was added to each well and the plate blocked for one hour before undergoing washing with binding buffer (3×5 minutes). Each well was loaded with either binding buffer or KRas solution (0→300 μM), and the plate was incubated for 30 minutes. Plate washing with binding buffer (3×5 minutes) preceded incubating the plate with a (1000:1) dilution of 1° antibody (ab) rabbit anti-Ras (CST #3965) in ab buffer for thirty minutes. The plate was washed with binding buffer (3×5 minutes), loaded with a (2000:1) dilution of 2° ab goat anti-rabbit, HRP-linked ab (CST #7074) in ab buffer, and incubated for an additional thirty minutes. The plate was rinsed with binding buffer (3×5 minutes), TBS (1×5 minutes), loaded with a (1:1) mixture of TMB Peroxidase Solution and TMB Peroxidase Solution B, and developed with occasional agitation for 8-12 minutes. After quenching the enzymatic reaction with 1M H₂SO_{4(aq)} (100 μL) the plate was read at λ=450 nm within ten minutes. The data was double background corrected using the ab only absorbance and the dummy ligand absorbance, plotted using Prism GraphPad 7 (Sigmoidal 4PL mode with the Hill coefficient set=1), and an EC₅₀ value was calculated.

EC50	Binder
25.6 µM	B2
7.78 µM	B3
25.8 µM	B4
44.2 µM	B5
6.87 µM	B6

Each binder was assayed against T1, His6-tagged human KRas Isoform 4B … (assay: B-RAP immunofluorescence, 10 µM KRas well, pixel-by-pixel along the barcode lane).

Avg F635 (full centroid)	Avg F635 (full lane)	avg F635 (left part centroid)	avg F635 (middle part centroid)	avg F635 (right part centroid)	Binder
17800	16000	15600	19400	18500	B7

These binders were tested against T1, His6-tagged human KRas Isoform 4B … (assay: barcoded rapid assay microchip, fitted curves of FIG. 6B (Hill coefficient 1), triplicate).

EC50	Binder
32.7 µM	B8
12.2 µM	B9
8.19 µM	B1
8.44 µM	B2
16.2 µM	B10
19.4 µM	B11
53.3 µM	B3
19.6 µM	B12
31.5 µM	B4
16 µM	B7
30.3 µM	B5

Each binder was assayed against T1, His6-tagged human KRas Isoform 4B … (assay: B-RAP surface immunofluorescence assay; ligand on barcode via SAC-DNA, KRas titrated 0-400 µM).
Description: After extraction the data is background corrected. The background signal arises from (a) non-specific binding of the primary and secondary antibodies (independent of [KRas]), but can vary across different barcode stripes), and (b) non-specific binding of KRas protein ([KRas] dependent). Background (a) was assessed by measuring the average signal in the null protein well for each stripe. Background (b) was assessed by measuring the average fluorescence for the dummy ligand (Biotin* probe) that was in each well. The background subtracted data was then graphed in Graphpad Prism 7 and fitted to a sigmoidal curve (Hill coefficient=1).
A pre-fabricated PDMS template was aligned onto the DNA barcode microchip, and the microchip was taped into a 10 cm petri dish. The wells on the platform were wet with 50 μL PBST before filling with blocking buffer and placing into a 37° C. incubator for 1 hr. Concurrently, 40 μL 1% BSA in PBS solutions containing 750 nM of a SAC-DNA conjugate and 3.75 μM of one biotinylated PCC ligand or biotin-A₂₀-Cy3 blank were prepared for each SAC-DNA conjugate. The biotinylated ligands were allowed to complex with the SAC protein for one hour before pooling the SAC-DNA-ligand solutions (final [SAC-DNA-ligand conjugates]=50 nM). The blocking buffer was aspirated and each well was loaded with the SAC-DNA-ligand conjugates cocktail for hybridization with the DNA barcode at 37° C. for one hour. The wells were washed with PBST (3×) before loading serially diluted solutions of KRas protein in protein buffer (0 to 400 μM). After shaking at RT for one hour, the wells were rinsed with PBST (5×), making sure to pipet up/down with the first addition of PB ST. A (100:1) dilution of CST rabbit anti-Ras Ab (#39655) in 1° ab buffer was added to each well before shaking at RT for one hour. After rinsing the wells with PBST (3×), the wells were loaded with a (200:1) dilution of Abcam goat anti-rabbit-Alexafluor 647 linked ab (ab150079) in 2° ab buffer before shaking at RT for one hour. A final rinse of the wells with PBST (3×) proceeded peeling off the PDMS slab from the barcode microchip and dipping the barcode into the following solutions: PBS, (1:1) PBS: MQ H₂O, MQ H₂O (2×). After being spun dry, the barcode was read on the Genepix (635 nm, PMT 600, PWR 40% (60 W); 532 nm, PMT 450, PWR 15% (23 W)).

EC50	Binder
1.33 µM	B9
3.31 µM	B1
2.8 µM	B2
0.97 µM	B10
5.23 µM	B13
18.9 µM	B7
7.8 µM	B6

The binders below were run against T1, His6-tagged human KRas Isoform 4B … (assay: multi-well sandwich ELISA; ligand on Neutravidin plate, KRas 0-300 µM; footnote b: poorly resolved).
Description: as §1

EC50	Binder
0.76 µM	B9
33.2 µM	B1
1.65 µM	B10
3.72 µM	B13
159 µM	B7
